Source: PMC8192788, “Macropinocytosis requires Gal-3 in a subset of patient-derived glioblastoma stem cells” (Communications Biology, 2021)

Molecular target: T1, purified human Gal-3 (Biolegend) (human, UniProt P17931 1-250)
T1 construct: purified human Galectin-3 bought from Biolegend; No catalogue number printed; source: bought: Biolegend
Assay: cell-free binding assay (coated plate, antibody detection by fluorescence); 96-well plates coated with purified human Gal-3 (0.5 µg in 100 µl, 4 °C overnight), blocked with 50 mg/mL BSA; recombinant human RAB10 0.25 to 0.5 µg/well, 4 h at 30 °C; bound RAB10 detected with rabbit anti-RAB10 and AF488 secondary antibody
Conditions: both partners purified

T1 sequence (P17931 whole entry): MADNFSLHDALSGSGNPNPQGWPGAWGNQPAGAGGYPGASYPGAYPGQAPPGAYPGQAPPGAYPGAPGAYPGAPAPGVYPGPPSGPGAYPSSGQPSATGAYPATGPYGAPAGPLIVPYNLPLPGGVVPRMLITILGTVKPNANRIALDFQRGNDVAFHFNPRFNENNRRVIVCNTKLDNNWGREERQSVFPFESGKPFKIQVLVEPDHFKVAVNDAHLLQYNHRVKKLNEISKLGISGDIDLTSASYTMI

B1: recombinant human RAB10 (Prospec PRO-1361) (natural protein, UniProt P61026 1-200, looked up)
chain: MAKKTYDLLFKLLLIGDSGVGKTCVLFRFSDDAFNTTFISTIGIDFKIKTVELQGKKIKLQIWDTAGQERFHTITTSYYRGAMGIMLVYDITNGKSFENISKWLRNIDEHANEDVERMLLGNKCDMDDKRVVPKGKGEQIAREHGIRFFETSAKANINIEKAFLTLAEDILRKTPVKEPNSENVDISSGGGVTGWKSKCC
notes: recombinant human RAB10 bought from Prospec; The vendor's data sheet for PRO-1361 should give limits and any His tag; source: bought: Prospec
binding result: binds
